The text below walks through data of paper PMC3874172 (Nucleic Acids Research, 2013).

The target of test [1] is GST-ETO (UniProt Q06455). Kind of test: pull-down.
The target of test [2] is T1, GST-ETO (UniProt Q06455-2 1-577).
T1 sequence (looked up): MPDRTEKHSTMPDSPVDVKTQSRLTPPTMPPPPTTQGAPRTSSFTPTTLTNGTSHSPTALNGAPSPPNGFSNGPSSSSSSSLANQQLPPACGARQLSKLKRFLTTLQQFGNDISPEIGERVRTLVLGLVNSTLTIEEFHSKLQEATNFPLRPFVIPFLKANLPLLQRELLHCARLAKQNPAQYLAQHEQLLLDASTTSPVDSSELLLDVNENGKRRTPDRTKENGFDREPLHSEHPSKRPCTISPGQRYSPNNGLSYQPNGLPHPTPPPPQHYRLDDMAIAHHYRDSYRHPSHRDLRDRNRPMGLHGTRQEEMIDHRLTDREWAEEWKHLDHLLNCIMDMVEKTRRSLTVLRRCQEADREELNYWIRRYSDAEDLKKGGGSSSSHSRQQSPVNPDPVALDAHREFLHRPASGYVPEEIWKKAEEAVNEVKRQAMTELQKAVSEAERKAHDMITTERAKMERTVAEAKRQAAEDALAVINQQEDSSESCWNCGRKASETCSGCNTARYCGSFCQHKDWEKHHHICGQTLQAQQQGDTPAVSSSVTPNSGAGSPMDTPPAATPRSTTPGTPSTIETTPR
Kind of test: pull-down.

In the case of “isolated DES domain of E2A, in vitro translated Gal4-DBD fusion (domain or fragment)”, the fold reduction of binding relative to E2A-AD with GST-ETO [1] stood at 4 fold.

B1: E2A-AD1 (amino acids 1-90), in vitro translated (domain or fragment, UniProt P15923 1-90, looked up)
chain: MNQPQRMAPVGTDKELSDLLDFSMMFPLPVTNGKGRPASLAGAQFGGSGLEDRPSSGSWGSGDQSSSSFDPSRTFSEGTHFTESHSSLSS
modifications: 35S label
Take B1: the “fold reduction of binding relative to E2A-AD” value in the test with GST-ETO [2] was around 24 fold.
